The target of this data set is RecA (Escherichia coli, UniProt P0A7G6 P0A7G6:2-353). As to the kind of experiment: EMSA; gel shift in presence of ATP-gamma-S, 20 mM Tris pH 7.35, 10 mM MgCl2, 37 C. As to conditions: tags: commercial, Promega/Pharmacia/USB; label: 5'-32P. On the procedure: Any oligonucleotide may be used for this assay. For this experiment, an oligonucleotide (33-mer) derived from the central portion of the pUC19 poly linker 5′-[…]-3′ [SEQ ID NO: 20] was endlabeled at the 5′ end with ³²P-ATP using T4 polynucleotide kinase. The oligonucleotide was purified on Qiaquick columns using buffer PN (Qiagen) and the OD at 260 nm indicated a concentration of 5 ng/μl. Any oligonucleotide sequence may be used in this experiment. The SEQ ID NO: 16 oligonucleotide was incubated with 60 ng of DRAP or RecA in various buffers for 30 minutes at 37° C. A loading buffer was added and the material separated on a 6% 1×TAE, polyacrylamide minigel at 250 V for 14 minutes. The gel was dried and exposed to film with one intensifying screen for ˜16 hrs. at −80° C. No degradation of the oligonucleotide was observed. (FIG. 8.) Gel shifting with RecA in the presence of […] is consistent with the known properties of that protein.
(In general: A gel shift assay detects complexes by their altered migration in electrophoresis.)

RecA, sequence (P0A7G6 2-353, one chain of several): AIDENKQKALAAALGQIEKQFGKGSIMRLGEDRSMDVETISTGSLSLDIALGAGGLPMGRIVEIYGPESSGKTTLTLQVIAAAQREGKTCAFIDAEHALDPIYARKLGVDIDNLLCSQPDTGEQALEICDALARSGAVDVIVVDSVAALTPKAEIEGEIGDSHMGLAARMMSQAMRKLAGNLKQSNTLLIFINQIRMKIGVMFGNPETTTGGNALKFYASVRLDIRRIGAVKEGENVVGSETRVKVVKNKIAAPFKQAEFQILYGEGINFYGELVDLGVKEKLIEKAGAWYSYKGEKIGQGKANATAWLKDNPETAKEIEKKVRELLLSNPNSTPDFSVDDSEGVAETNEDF

With GGTACCCGGGGATCCTCTAGAGTCGACCTGCAG (ssDNA) [pUC19 polylinker 33-mer], the binding result is on record as “binds”.

The values are drawn from US20030144495, “Drosophila recombination-associated protein and methods for use” (Albert Einstein College of Medicine of Yeshiva University, published 2003).
